Experimental findings from the supplement of paper PMC10126150 are described below.

The data set deals with ATP. In words: switch fluorescence ratio, 500 uM ATP over buffer (Cy3 cluster intensity, sum of 5 cycles each) (fold (ratio)); higher = stronger signal-on switching upon ATP binding; sequences stand for … in TCGTCGGCAGCGTCAGATGTGTATAAGAGACAGTTTTTTTTTTTTTTTTTTTTTTTTT…TC. To be noted: aptamer strand: ATP DNA aptamer (quencher-CACCTGGGGGAGTATTGCGGAGGAAGG + anchor), 100 nM annealed; ATP concentration: 500 uM. In short, it runs like this:
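The fluorescence ratio divides summed target-cycle Cy3 intensity by summed buffer-cycle Cy3 intensity for each cluster and is averaged per switch-domain sequence. Cy3-labelled switching-strand clusters on a modified Illumina MiSeq flow-cell were annealed to 100 nM quencher-labelled ATP aptamer, then imaged in selection buffer and again after 15 min with 500 uM ATP at 22 °C. Five such cycles were run, with NaOH stripping and re-annealing between them, and clusters outside 100-1000 RFU were excluded.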

± gives the standard deviation of the averaged measurements.
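Note: ATP exposure 15 min at 22 °C before imaging.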

Consider AAGGTTGGGT, for which the switch fluorescence ratio is 0.984 ± 0.031.

Turning to AAGGTTGGTG, the switch fluorescence ratio was determined as 1 ± 0.034. As for AAGGTTTGCC, the switch fluorescence ratio turned out to be 0.965 ± 0.028. For AAGTAAGCAG, the switch fluorescence ratio came to 0.9636 ± 0.0011. As to AAGTAATGCG, the switch fluorescence ratio came to 1.04 ± 0.034.

With AAGTAATTGT, the switch fluorescence ratio came out at 1.01 ± 0.015. As to AAGTACAAGG, the switch fluorescence ratio turned out to be 1.16 ± 0.1. Take AAGTACGTTA: the switch fluorescence ratio stood at 1.25 ± 0.029. On to AAGTAGAATT, for which the switch fluorescence ratio was found to be 1.015 ± 0.0045.

As to AAGTAGAGTG, the switch fluorescence ratio was 0.9834 ± 0.0013. The same measure for AAGTAGGAAA: 0.999 ± 0.013. In the case of AAGTAGTTCG, the switch fluorescence ratio was found to be 0.9823 ± 0.0037.

AAGTAGTTTC: the switch fluorescence ratio was found to be 1.01 ± 0.018. The same measure for AAGTATAATG: 1.02 ± 0.054; for AAGTATACTT: 0.986 ± 0.0049. In the case of AAGTATAGGT it was 1.03 ± 0.017; in that of AAGTATTAGA, 0.964 ± 0.011.

With AAGTCATTTA, the switch fluorescence ratio stood at 0.9881 ± 0.0096. In the case of AAGTCCCCGG it was 1.18 ± 0.015; in that of AAGTCCTGGA, 1.07 ± 0.13; in that of AAGTCCTTCT, 1.07 ± 0.036.

Regarding AAGTCGCATT, the switch fluorescence ratio was 1.03 ± 0.014.

AAGTCGGTCT: the switch fluorescence ratio worked out at 1.05 ± 0.1.

For the sequence AAGTCTACG, the switch fluorescence ratio is 1.04 ± 0.03. Turning to AAGTCTATGG, the switch fluorescence ratio was 1 ± 0.054.

Turning to AAGTCTTAAG, the switch fluorescence ratio is 1.04 ± 0.013. Turning to AAGTGACAGC, the switch fluorescence ratio is 1 ± 0.031.

Consider AAGTGAGAAA, for which the switch fluorescence ratio amounted to 0.983 ± 0.066.

In the case of AAGTGAGTGC, the switch fluorescence ratio was determined as 1 ± 0.059. Turning to AAGTGCCTGC, the switch fluorescence ratio is 1.015 ± 0.0056. In the case of AAGTGCTGGG it was 0.993 ± 0.034; in that of AAGTGGATAT, 0.999 ± 0.024; in that of AAGTGGCTGG, 0.991 ± 0.038. In the case of AAGTGGTCTG it was 0.983 ± 0.017. Turning to AAGTGGTTGG, the switch fluorescence ratio worked out at 0.984 ± 0.024. With AAGTTAAAGG, the switch fluorescence ratio worked out at 1.03 ± 0.077. The same measure for AAGTTAATCT: 0.988 ± 0.019; for AAGTTACGTT: 1.04 ± 0.081; for AAGTTACTAG: 1.07 ± 0.014. In the case of AAGTTACTGT, the switch fluorescence ratio worked out at 1.126 ± 0.006.

AAGTTAGACC: the switch fluorescence ratio was found to be 1.026 ± 0.0041. Consider AAGTTATGAG, for which the switch fluorescence ratio amounted to 1.01 ± 0.046. In the case of AAGTTATGTT it was 1.02 ± 0.028. The same measure for AAGTTATTTT: 1.01 ± 0.015; for AAGTTCATGG: 0.973 ± 0.012.

Regarding AAGTTCCTTC, the switch fluorescence ratio was 1.05 ± 0.036. The same measure for AAGTTCTTTA: 1.02 ± 0.022; for AAGTTGAGTA: 0.986 ± 0.025.

For the sequence AAGTTGAGTT, the switch fluorescence ratio turned out to be 1.007 ± 0.0017.

Consider AAGTTGGGAA, for which the switch fluorescence ratio was determined as 1.02 ± 0.042. Take AAGTTGGGAT: the switch fluorescence ratio turned out to be 0.972 ± 0.037. For AAGTTGGGCC, the switch fluorescence ratio came to 0.955 ± 0.044.

In the case of AAGTTGTACG, the switch fluorescence ratio came out at 0.9989 ± 0.0032. In the case of AAGTTGTTCT, the switch fluorescence ratio was determined as 0.997 ± 0.014.

In the case of AAGTTTAGAA, the switch fluorescence ratio is 1 ± 0.012. The same measure for AAGTTTAGTG: 0.976 ± 0.019. The same measure for AAGTTTATTC: 0.967 ± 0.017; for AAGTTTGAAG: 0.974 ± 0.01.

For the sequence AAGTTTGCAT, the switch fluorescence ratio came to 0.978 ± 0.021. In the case of AAGTTTGTT it was 0.983 ± 0.027; in that of AAGTTTTAGG, 0.988 ± 0.027; in that of AAGTTTTGAC, 1 ± 0.014. In the case of AAGTTTTGGA, the switch fluorescence ratio was 1.02 ± 0.025.

Regarding AAGTTTTGTG, the switch fluorescence ratio came to 0.9869 ± 0.0074. Regarding AAGTTTTTAT, the switch fluorescence ratio was determined as 0.971 ± 0.019. The same measure for AAGTTTTTTA: 0.993 ± 0.023; for AAGTTTTTTG: 0.989 ± 0.013.

Regarding AATAAAAAAC, the switch fluorescence ratio was 1.05 ± 0.078. As for AATAAAAGAG, the switch fluorescence ratio turned out to be 0.962 ± 0.018.

With AATAAATGCT, the switch fluorescence ratio was 0.99 ± 0.036.

Consider AATAAATTTA, for which the switch fluorescence ratio stood at 1 ± 0.016. In the case of AATAACGAAG it was 1.04 ± 0.045. The same measure for AATAAGAATA: 1 ± 0.037; for AATAAGAGAC: 1.01 ± 0.043; for AATAAGGCCG: 0.996 ± 0.076. AATAAGGGTG: the switch fluorescence ratio was 1.09 ± 0.14. In the case of AATAAGTGTT it was 0.9792 ± 0.008. In the case of AATAATAGGC it was 0.97 ± 0.012.
